The values below come from patent US20230250178A1.

Assay [1] deals with human CCR8 (human) (UniProt P51685). In words: FACS, BODIPY-labelled antibody, HuT78. Background: A flow cytometer gives signals particle by particle.
Assay [2] has as its target cynomolgus CCR8 (cynomolgus). In words: FACS, CHO-cynoCCR8.
Assay [3] concerns the target human CCR8 (human) (UniProt P51685). In words: FACS, CHO-hCCR8.
Assay [4] has the same target. In words: cell-based or functional assay.

cynomolgus CCR8 (cynomolgus), sequence (O97665 other isoform, or with tags, fused parts or gaps): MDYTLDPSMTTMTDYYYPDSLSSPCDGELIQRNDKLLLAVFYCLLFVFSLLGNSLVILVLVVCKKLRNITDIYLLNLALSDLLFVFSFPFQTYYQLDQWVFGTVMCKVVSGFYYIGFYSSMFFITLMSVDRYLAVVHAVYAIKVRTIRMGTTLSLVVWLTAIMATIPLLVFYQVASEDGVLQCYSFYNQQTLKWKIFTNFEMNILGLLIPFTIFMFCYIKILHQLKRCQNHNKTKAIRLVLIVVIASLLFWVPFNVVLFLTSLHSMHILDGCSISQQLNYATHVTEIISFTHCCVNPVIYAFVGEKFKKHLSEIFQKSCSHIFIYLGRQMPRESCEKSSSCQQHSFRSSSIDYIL

B1: 433H (antibody, from another filing, V domains shown)
VH: EVQLVETGGGLVQPKGSLRLSCAASGFPFNTFAMNWVRQAPGKGLEWLARIRSKSNNYATYYADSVKDRFTISRDDSRRMLYLLMNNVKFEDTAIYYCVRGKENNYGYAMDYWGQGTSVTVSS
VL: DIVMTQAAPSVPVTPGESVSISCRSSQSLLHSNGNTYLYWFLQRPGQSPQLLIYRMSNLASGVPDRFSGSGSGTAFTLRISRVEAEDVGVYYCMQHLEYPFTFGIGTKLELKR
For B1, the FACS HuT78 [MFI] with human CCR8 (human) [1] came to 50 MFI. The EC50 (usually the midpoint of the concentration-response curve) in assay [2] was found to be 12.1 nM. This molecule also registered an EC50 with human CCR8 (human) [3] of 2.8 nM. Moreover, in the assay with human CCR8 (human) [4], the IC50, Ca flux assay was determined as 1.3 nM and the IC50, inhibition of CCL1 induced β-arrestin signaling turned out to be 0.78 nM.
